Experimental data taken from article PMC13156308.

What was measured:
GST-tagged MCM2 (human) = GST-tagged MCM2 (human) (UniProt P49736); experiment: BLI; MCM2 immobilised on Anti-GST biosensors, BLItz, 1x PBS and 0.02% Tween; analyte 0-50.0 nM
[1] = biological target: full-length strep-tagged POLD3 (human) (UniProt Q15054); experiment: BLI; POLD3 immobilised on Streptavidin (SAX) biosensors, BLItz, 1x PBS and 0.02% Tween
full-length strep-tagged POLD3 (human), sequence (Q15054 whole entry): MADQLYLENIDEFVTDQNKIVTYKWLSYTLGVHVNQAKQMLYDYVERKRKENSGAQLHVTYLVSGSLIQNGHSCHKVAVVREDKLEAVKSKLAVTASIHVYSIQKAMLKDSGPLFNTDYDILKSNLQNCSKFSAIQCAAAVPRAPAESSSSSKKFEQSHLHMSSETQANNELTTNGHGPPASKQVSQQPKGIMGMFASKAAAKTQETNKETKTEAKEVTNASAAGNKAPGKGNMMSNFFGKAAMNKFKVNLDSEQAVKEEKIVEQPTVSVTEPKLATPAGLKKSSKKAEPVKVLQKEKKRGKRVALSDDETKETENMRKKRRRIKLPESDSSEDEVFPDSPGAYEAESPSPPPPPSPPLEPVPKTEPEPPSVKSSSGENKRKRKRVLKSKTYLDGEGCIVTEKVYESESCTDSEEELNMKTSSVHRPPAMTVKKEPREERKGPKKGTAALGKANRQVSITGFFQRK

GST-tagged MCM2 (human), sequence (P49736 whole entry): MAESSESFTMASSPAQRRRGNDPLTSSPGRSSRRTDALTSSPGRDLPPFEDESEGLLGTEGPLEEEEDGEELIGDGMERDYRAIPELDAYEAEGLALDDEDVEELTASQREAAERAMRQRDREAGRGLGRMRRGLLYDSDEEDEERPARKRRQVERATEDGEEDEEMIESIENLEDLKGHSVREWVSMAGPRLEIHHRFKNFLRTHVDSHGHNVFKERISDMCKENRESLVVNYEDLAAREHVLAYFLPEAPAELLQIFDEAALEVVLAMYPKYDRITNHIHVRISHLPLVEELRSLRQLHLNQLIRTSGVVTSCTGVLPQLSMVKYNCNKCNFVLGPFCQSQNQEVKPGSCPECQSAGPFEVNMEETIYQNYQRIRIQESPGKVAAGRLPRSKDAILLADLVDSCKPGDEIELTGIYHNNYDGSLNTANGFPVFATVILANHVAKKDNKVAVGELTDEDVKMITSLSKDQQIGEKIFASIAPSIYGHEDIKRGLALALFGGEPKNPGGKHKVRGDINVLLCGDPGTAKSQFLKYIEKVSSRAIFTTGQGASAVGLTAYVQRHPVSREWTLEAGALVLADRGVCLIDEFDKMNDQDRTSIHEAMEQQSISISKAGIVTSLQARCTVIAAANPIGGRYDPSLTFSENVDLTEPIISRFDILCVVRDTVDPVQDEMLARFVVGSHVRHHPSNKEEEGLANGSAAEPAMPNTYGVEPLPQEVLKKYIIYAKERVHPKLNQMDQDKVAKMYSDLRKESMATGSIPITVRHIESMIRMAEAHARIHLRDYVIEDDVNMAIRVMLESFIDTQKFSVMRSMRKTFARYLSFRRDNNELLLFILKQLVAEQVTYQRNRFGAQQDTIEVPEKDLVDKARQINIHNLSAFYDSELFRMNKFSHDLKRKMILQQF

Kd (GST-tagged MCM2 (human)): 2.17 nM | Kd [1]: 2.7 nM
Substance: histone (H3.1-H4)2 tetramer (from UniProt P68431 1-136; P62805 1-103) (complex; other documents disagree on this pair)
